According to paper PMC4063181 (Journal of the American Chemical Society, 2014):

What was measured:
cross-linking = target: the molecule itself; experiment: cross-linking
solution NMR = target: the molecule itself; experiment: solution NMR

Protein | stoichiometry N (cross-linking) | binding result (solution NMR)
EmrE S107C mutant devoid of wild-type Cys residues (C39S, C41S, C95S, S107C) (natural protein) MNPYIYLGGAILAEVIGTTLMKFSEGFTRLWPSVGTIISYSASFWLLAQTLAYIPTGIAYAIWSGVGIVLISLLSWGFFGQRLDLPAIIGMMLISAGVLIINLLSRCTPH | 2 | 
EmrE (wild type) (natural protein) MNPYIYLGGAILAEVIGTTLMKFSEGFTRLWPSVGTIICYCASFWLLAQTLAYIPTGIAYAIWSGVGIVLISLLSWGFFGQRLDLPAIIGMMLICAGVLIINLLSRSTPH |  | binds
